In the experiment the target is T1, antigen DR5 (human death receptor 5), immobilised on the CM5 chip (human, UniProt O14763 56-182, limits assumed).
T1 construct: The title says the antibodies are against the extracellular domain, but the construct used is not described; also called TRAIL receptor 2; TRAIL-R2
In words: SPR (Biacore X100), DR5 immobilised on CM5 chip, antibody injected as analyte.

B1: humanized anti-human DR5 monoclonal antibody AD15 (antibody, human IgG1, kappa)
heavy: not shown
light: DVVMTQSPLSLPVTPGEPASISCRSSQSLVHSNGNTYLHWYLQKPGQSPQLLIYKVSNRFSGVPDRFSGSGSGTDFTLKISRVEAEDVGVYFCFQSTHVPHTFGQGTKLEIKRTVAAPSVFIFPPSDEQLKSGTASVVCLLNNFYPREAKVQWKVDNALQSGNSQESVTEQDSKDSTYSLSSTLTLSKADYEKHKVYACEVTHQGLSSPVTKSFNRGEC
notes: Humanized from murine AD5-10 by CDR grafting; human IgG1 heavy chain constant region and kappa light chain
B1 gave a Kd of 2.95 nM, a koff of 0.0097 s⁻¹ and a kon of 3.28e+06 M⁻¹ s⁻¹.

B2: humanized anti-human DR5 monoclonal antibody AD10 (antibody, human IgG1, kappa, V domains shown)
VH: EIQLVQSGPELKKPGASVKVSCKASGYTFTDFSMNWVRQAPGQGLKWMGWINTETGEPTYADDFKGRFALSMDTSVSTAYLQISSLKAEDTAVYFCVRIDYWGQGTTVTVSS
VL: DIVMTQSPLSLPVTPGEPASISCRSSQSLVHSNGNTYLHWYLQKPGQSPQLLIYKVSNRFSGVPDRFSGSGSGTDFTLKISRVEAEDVGVYYCFQSTHVPHTFGQGTKLEIKR
notes: as for B1
Molecule B2 came in with a Kd of 3.51 nM, a koff of 0.0198 s⁻¹ and a kon of 5.64e+06 M⁻¹ s⁻¹.

B3: humanized anti-human DR5 monoclonal antibody AD14 (antibody, human IgG1, kappa)
heavy: not shown
light: B1 light
notes: as for B1
B3: the dissociation constant Kd is 1.65 nM, the koff is 0.014 s⁻¹ and the kon amounted to 8.44e+06 M⁻¹ s⁻¹.

(Values after US20150353638A1 (INSTITUTE OF BASIC MEDICAL SCIENCES CHINESE ACADEMY OF …, published 2015).)
